Measured values taken from US20260015426A1 (23ANDME, published 2026).
Where two headings read alike, the source gives them in different places.

How the values were obtained:
[1] = target: T1, hu-M-IL1RAP construct, positions S21-T367 (extracellular domain of the membrane form of human IL1RAP) (human, UniProt Q9NPH3 21-367); experiment: ELISA, purified mAb
T1 construct: Biotinylated when captured on the Biacore chip
T1 sequence: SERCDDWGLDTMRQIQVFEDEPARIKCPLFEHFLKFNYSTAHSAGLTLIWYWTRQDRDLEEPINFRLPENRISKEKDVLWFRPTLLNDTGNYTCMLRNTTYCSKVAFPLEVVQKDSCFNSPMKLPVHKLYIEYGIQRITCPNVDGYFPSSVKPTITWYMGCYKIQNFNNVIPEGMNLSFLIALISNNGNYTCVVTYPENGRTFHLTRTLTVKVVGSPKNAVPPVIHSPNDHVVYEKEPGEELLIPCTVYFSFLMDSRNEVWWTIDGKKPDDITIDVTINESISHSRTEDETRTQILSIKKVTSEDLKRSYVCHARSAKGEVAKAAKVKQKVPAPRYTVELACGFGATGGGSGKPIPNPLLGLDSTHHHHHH

[2] = target: T2, hu-S-IL1RAP construct, positions S21-Q356 (soluble human IL1RAP) (human, UniProt Q9NPH3 21-350); experiment: ELISA, purified mAb
T2 sequence: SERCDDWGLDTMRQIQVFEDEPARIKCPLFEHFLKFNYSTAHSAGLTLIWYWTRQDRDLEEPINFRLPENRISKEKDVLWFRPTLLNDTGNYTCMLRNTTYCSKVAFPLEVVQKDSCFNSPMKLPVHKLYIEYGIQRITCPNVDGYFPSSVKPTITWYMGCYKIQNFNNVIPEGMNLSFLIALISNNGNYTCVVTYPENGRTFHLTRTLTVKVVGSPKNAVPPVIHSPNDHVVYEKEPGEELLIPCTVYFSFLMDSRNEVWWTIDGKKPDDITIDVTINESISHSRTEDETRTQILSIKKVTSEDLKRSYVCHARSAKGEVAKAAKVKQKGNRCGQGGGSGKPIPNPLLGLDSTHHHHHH

[3] = target: T3, cyno-M-IL1RAP construct, positions S21-T367 (cynomolgus monkey, UniProt P59822 21-367 (rhesus entry)); experiment: ELISA, purified mAb
T3 construct: Biotinylated when captured on the Biacore chip; also called cy-M-IL1RAP
T3 sequence: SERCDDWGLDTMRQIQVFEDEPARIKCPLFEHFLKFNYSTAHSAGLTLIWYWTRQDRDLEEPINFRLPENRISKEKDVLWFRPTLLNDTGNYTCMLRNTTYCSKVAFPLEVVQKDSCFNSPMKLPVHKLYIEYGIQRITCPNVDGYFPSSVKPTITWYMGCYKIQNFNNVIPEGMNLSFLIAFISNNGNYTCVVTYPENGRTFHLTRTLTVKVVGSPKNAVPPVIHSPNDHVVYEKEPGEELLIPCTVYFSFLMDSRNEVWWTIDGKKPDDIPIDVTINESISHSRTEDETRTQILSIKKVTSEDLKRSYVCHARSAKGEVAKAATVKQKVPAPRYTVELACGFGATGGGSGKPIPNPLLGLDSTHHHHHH

[4] = target: T4, mu-M-IL1RAP construct, positions S21-T367 (mouse, UniProt Q61730 21-367); experiment: ELISA, purified mAb
T4 construct: also called mo-M-IL1RAP; mouse-M-IL1RAP
T4 sequence: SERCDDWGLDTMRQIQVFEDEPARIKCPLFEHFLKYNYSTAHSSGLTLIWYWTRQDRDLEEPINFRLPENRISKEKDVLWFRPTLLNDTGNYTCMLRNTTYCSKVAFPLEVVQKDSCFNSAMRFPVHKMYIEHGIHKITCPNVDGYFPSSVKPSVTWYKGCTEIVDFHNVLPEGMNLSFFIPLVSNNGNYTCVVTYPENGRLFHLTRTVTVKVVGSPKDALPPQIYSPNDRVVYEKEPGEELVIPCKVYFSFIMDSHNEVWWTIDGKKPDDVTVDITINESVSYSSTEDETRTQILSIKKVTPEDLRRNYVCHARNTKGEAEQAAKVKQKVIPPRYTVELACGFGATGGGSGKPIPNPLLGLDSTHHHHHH

[5] = target: T1, hu-M-IL1RAP construct, positions …; experiment: ELISA, mAb at 10 nM
[6] = target: T5, hu-M-IL1RAP-D1D2 construct, positions S21-P237 (human); experiment: ELISA, mAb at 10 nM
T5 chain: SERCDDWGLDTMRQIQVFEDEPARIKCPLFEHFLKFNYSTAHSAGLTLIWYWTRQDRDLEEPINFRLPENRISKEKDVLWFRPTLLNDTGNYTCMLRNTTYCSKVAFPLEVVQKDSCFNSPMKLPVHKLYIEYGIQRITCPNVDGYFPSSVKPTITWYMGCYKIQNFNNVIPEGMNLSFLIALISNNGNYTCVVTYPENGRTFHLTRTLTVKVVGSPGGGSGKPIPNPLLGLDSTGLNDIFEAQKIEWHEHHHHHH

[7] = target: T6, human IL1RAP (hu-IL1RAP) on human cells (human, UniProt Q9NPH3 21-570); experiment: cell-based or functional assay
T6 sequence: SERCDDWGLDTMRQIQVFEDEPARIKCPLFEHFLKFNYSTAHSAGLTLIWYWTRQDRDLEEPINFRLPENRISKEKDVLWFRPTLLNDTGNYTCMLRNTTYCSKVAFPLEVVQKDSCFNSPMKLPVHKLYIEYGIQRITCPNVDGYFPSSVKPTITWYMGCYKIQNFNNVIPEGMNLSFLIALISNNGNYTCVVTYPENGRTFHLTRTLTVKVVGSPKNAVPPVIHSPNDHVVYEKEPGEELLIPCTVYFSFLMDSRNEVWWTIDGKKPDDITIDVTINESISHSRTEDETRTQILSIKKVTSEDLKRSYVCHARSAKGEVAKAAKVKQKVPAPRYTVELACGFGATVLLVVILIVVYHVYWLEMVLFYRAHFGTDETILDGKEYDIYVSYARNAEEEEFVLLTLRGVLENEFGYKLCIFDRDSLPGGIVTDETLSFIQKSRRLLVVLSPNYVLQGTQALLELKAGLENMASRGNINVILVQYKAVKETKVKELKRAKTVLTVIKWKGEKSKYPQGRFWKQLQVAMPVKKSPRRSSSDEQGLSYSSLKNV

[8] = target: T6, human IL1RAP (hu-IL1RAP) on human cells; experiment: cell-based or functional assay; remark: listed apart in the source
[9] = target: T1, hu-M-IL1RAP construct, positions …; experiment: ELISA, hybridoma supernatant
[10] = target: T1, hu-M-IL1RAP construct, positions …; experiment: SPR, 37 C
[11] = target: T3, cyno-M-IL1RAP construct, positions …; experiment: SPR, 37 C
[12] = target: T6, human IL1RAP (hu-IL1RAP) on human cells; experiment: cell-based or functional assay; remark: listed apart in the source
[13] = target: T6, human IL1RAP (hu-IL1RAP) on human cells; experiment: cell-based or functional assay; remark: listed apart in the source
[14] = target: T1, hu-M-IL1RAP construct, positions …; experiment: SPR, IgG analyte (apparent), 37 C, pH 6
[15] = target: T3, cyno-M-IL1RAP construct, positions …; experiment: SPR, IgG analyte (apparent), 37 C, pH 6
[16] = target: T1, hu-M-IL1RAP construct, positions …; experiment: SPR, IgG analyte (apparent), 37 C, pH 7.4
[17] = target: T3, cyno-M-IL1RAP construct, positions …; experiment: SPR, IgG analyte (apparent), 37 C, pH 7.4
[18] = target: T1, hu-M-IL1RAP construct, positions …; experiment: SPR, IgG analyte (apparent), pH 7.4, 37 C
[19] = target: T3, cyno-M-IL1RAP construct, positions …; experiment: SPR, IgG analyte (apparent), pH 7.4, 37 C
[20] = target: T7, biotinylated human FcRn (Acro biosystems, catalogue number FCN-H52W7) (human, UniProt P55899 24-297; P61769 21-119, biotinylated); experiment: SPR steady state, FcRn captured, 25 C, pH 6.0; pH 6.0
T7 construct: Bought reagent; also called hu-FcRn
T7 sequence (P55899 24-297 limits assumed, chain 1 of 2): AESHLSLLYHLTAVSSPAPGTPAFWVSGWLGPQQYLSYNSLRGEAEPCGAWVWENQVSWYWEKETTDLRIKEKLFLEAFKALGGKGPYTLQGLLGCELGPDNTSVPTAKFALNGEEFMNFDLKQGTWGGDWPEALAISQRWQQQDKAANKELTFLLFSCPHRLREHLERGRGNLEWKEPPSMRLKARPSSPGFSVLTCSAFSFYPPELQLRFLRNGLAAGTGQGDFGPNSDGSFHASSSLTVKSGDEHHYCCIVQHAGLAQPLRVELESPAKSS
T7 sequence (P61769 21-119 limits assumed, chain 2 of 2): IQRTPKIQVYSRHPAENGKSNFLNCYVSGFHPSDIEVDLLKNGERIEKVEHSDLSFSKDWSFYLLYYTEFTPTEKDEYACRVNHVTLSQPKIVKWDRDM

[21] = target: T8, biotinylated cyno FcRn (Acro biosystems, catalogue number FCM-C5284) (cynomolgus monkey, UniProt Q8SPV9 24-297; Q8SPW0 21-119, limits assumed, biotinylated); experiment: as above
T8 construct: Bought reagent

B1: 9D5 (purified mAb from hybridoma 9D5) (antibody, V domains shown)
VH: QVQLQQSGAELARPGASVKFSCKASGYTFTSYWMQWVKQRPGQGLEWIGTIYPGDGNTRYTQKFKGKATLTADKSSSTAYMQLSGLASEDSAVYYCARGYFGNLVFDVWGAGTTVTVSS
VL: DIKMTQSPSSMYASLGERVTITCKASQDINTYLSWFLQKPGKSPKTLIYRADRLVDGVPSRFSGGGSGQDYSLTISSLEYEDLGIYYCLQYDEFPYTFGSGTKLEIK
notes: Mouse hybridoma mAb
For B1, the EC50 [1] was 0.039 nM, the EC50 [2] was 0.036 nM and the EC50 [3] was 0.043 nM. For the same binder, the binding result [4] was “no binding (tested: 20 nM (highest tested))”, the A450 [5] was 1.14 A450 and the A450 [6] was 0.957 A450. The “HEK-Blue SEAP, IL-1β, % inhibition (supernatant)” value [7] was 40%, the “HEK-Blue SEAP, IL-33, % inhibition (supernatant)” value [7] was 18% and the “HEK-Blue, IL-1β, % inhibition at 100 nM” value [8] was 86%. The “HEK-Blue, IL-33, % inhibition at 100 nM” value [8] was 46% and the A450 [9] was 1.05 A450.

B2: h11C5 variant K17/H2 IgG (YKD) (antibody)
heavy: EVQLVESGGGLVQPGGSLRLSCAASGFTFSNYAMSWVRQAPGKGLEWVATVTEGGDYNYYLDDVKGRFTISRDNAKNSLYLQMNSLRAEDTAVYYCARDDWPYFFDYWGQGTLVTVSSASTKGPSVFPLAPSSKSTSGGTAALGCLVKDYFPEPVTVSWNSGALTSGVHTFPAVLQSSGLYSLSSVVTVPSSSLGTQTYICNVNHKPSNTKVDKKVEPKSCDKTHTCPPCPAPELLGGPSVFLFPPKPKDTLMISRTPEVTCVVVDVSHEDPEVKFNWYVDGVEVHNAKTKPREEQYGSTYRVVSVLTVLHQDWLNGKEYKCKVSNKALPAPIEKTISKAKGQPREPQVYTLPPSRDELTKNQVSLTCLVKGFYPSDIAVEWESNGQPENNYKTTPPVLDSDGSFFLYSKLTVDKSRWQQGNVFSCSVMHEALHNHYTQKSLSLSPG
light: DIQMTQSPSSLSASVGDRVTITCRASENIYSNLAWYQQKPGKSPKLLVYGYKNLADGVPSRFSGSGSGTDYTLTISSLQPEDFATYYCQHFKTTPRTFGGGTKVEIKRTVAAPSVFIFPPSDEQLKSGTASVVCLLNNFYPREAKVQWKVDNALQSGNSQESVTEQDSKDSTYSLSSTLTLSKADYEKHKVYACEVTHQGLSSPVTKSFNRGEC
notes: Human IgG1 N297G; also called 11C5-YKD
B2 was tested, and the “KD (6)/KD (7.4)” value [10] was 10 ratio, the “KD (7.4) ratio to YIS” value [10] was 0.86 ratio and the “koff (6) ratio to YIS” value [10] was 3.8 ratio. The “KD (6)/KD (7.4)” value [11] was 4.8 ratio, the “KD (7.4) ratio to YIS” value [11] was 2.4 ratio and the “koff (6) ratio to YIS” value [11] was 4.7 ratio. For the same binder, the “HEK-Blue, IL-1β, IC50” value [12] was 0.51 nM, the “HEK-Blue, IL-33, % inhibition at 100 nM” value [12] was 95% and the “HEK-Blue, IL-33, IC50” value [12] was 3.15 nM. For the same binder, the “HEK-Blue, IL-36β, IC50” value [12] was 0.9 nM, the “HEKn, IL-36β stimulated IL-8, IC50” value [12] was 1.39 nM and the “NK cells, IL-33+IL-12 stimulated IFN-γ, IC50” value [12] was 2.93 nM. For the same binder, the “PHLF, IL-1α stimulated IL-8, IC50” value [12] was 9.1 nM, the “PHLF, IL-36β stimulated IL-8, IC50” value [12] was 0.39 nM and the “monocytes, IL-1β stimulated IL-6, IC50” value [12] was 0.063 nM. The “HEK-Blue, IL-1β, % inhibition at 100 nM (IgG)” value [13] was 100%, the “HEK-Blue, IL-1β, IC50 (IgG)” value [13] was 0.513 nM and the “HEK-Blue, IL-33, % inhibition at 100 nM (IgG)” value [13] was 100%. For the same binder, the “HEK-Blue, IL-33, IC50 (IgG)” value [13] was 2.08 nM, the “HEK-Blue, IL-36α, % inhibition at 100 nM (IgG)” value [13] was 100% and the “HEK-Blue, IL-36α, IC50 (IgG)” value [13] was 0.622 nM. For the same binder, the Kd [14] was 0.188 nM, the koff [14] was 0.00056 s⁻¹ and the kon [14] was 2.98e+06 M⁻¹ s⁻¹. It also gave a Kd [15] of 0.164 nM, a koff [15] of 0.000324 s⁻¹ and a kon [15] of 1.98e+06 M⁻¹ s⁻¹. It also gave a Kd [16] of 0.0185 nM, a koff [16] of 3.51e-05 s⁻¹ and a kon [16] of 1.9e+06 M⁻¹ s⁻¹. The Kd [17] was 0.0339 nM, the koff [17] was 6.8e-05 s⁻¹ and the kon [17] was 2e+06 M⁻¹ s⁻¹. The Kd [18] was 0.0304 nM, the koff [18] was 6.15e-05 s⁻¹ and the kon [18] was 2.03e+06 M⁻¹ s⁻¹. The Kd [19] was 0.0223 nM, the koff [19] was 5.39e-05 s⁻¹ and the kon [19] was 2.41e+06 M⁻¹ s⁻¹. The Kd [20] was 558 nM and the Kd [21] was 45.6 nM.
